According to patent publication US20190367606A1 (CENTRE FOR DRUG RESEARCH AND DEVELOPMENT, published 2019):

T1: human podocalyxin (human, UniProt O00592 23-558)
T1 construct: also called hPodo; hPodocalyxin
T1 sequence: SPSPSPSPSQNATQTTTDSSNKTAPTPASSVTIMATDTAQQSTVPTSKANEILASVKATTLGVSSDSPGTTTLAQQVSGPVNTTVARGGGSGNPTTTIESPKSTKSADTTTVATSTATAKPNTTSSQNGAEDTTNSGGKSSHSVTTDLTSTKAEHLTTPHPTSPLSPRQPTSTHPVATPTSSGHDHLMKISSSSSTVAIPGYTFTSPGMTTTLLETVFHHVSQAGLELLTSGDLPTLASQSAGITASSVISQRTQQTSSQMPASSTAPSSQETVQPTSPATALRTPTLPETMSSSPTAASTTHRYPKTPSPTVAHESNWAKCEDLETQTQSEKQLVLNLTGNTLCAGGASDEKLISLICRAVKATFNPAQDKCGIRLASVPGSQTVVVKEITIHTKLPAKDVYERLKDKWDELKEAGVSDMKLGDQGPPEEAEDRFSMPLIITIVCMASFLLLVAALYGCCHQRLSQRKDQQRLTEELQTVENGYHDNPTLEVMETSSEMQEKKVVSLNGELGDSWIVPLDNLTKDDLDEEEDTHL

B1: huPodo 83 1:1 (humanized anti-podocalyxin antibody 83, version 1) (antibody, V domains shown)
VH: EVQLVESGGGLVQPGGSLRLSCAASGIDLSSYAMGWVRQAPGKGLEWVSFIYASGSIFYASWAKGRFTISRDNSKNTLYLQMNSLRAEDTAVYYCARAGYYFGGNYDLNLWGQGTLVTVSS
VL: DIQMTQSPSSLSASVGDRVTITCQASQSISNYLAWYQQKPGKVPKLLIYRASTLASGVPSRFSGSGSGTDFTLTISSLQPEDVATYYCQQGYVSNNLDNIFGGGTEVVVK
notes: Cloned into pTT5 plasmids with human IgG heavy chain and human Ig kappa constant regions
B2: huPodo 83 2:1 (humanized anti-podocalyxin antibody 83, version 2) (antibody, V domains shown)
VH: EVQLVESGGGLVQPGGSLRLSCAASGIDLSSYAMGWVRQAPGKGLEWVSFIYASGSIFYASWAKGRFTISRDNSNTLYLQMNSLRAEDTAVYYCARAGYYFGGNYDLNLWGQGTLVTVSS
VL: DIQMTQSPSSLSASVGDRVTITCQASQSISNYLAWYQQKPGKVPKLLIYRASTLASGVPSRFSGSGSGTDFTLTISSLQPEDVATYYCQQGYVSNNLDNIFGGGTEVVVK
notes: as for B1
B3: Rb VH, Vk 1:1 (Podo 83 rabbit VH, human CH1-CH3, human Ck, and humanized Vk) (antibody, V domains shown)
VH: QSLAESGGRLVTPGTPLTLTCTASGIDLSSYAMGWVRQAPGKGLEYIGFIYASGSIFYASWAKGRFTISKTSSTTVDLKMTSLTTEDTATYFCARAGYYFGGNYDLNLWGQGTLVTVSS
VL: DIQMTQSPSSLSASVGDRVTITCQASQSISNYLAWYQQKPGKVPKLLIYRASTLASGVPSRFSGSGSGTDFTLTISSLQPEDVATYYCQQGYVSNNLDNIFGGGTEVVVK
notes: Human CH1-CH3 and human Ck
B4: Rabbit Podo 83 (Parental rabbit antibody) (antibody, V domains shown)
VH: QSLAESGGRLVTPGTPLTLTCTASGIDLSSYAMGWVRQAPGKGLEYIGFIYASGSIFYASWAKGRFTISKTSSTTVDLKMTSLTTEDTATYFCARAGYYFGGNYDLNLWGQGTLVTVSS
VL: DIVLTQTPASVEVAVGGTVTIKCQASQSISNYLAWYQRKPGQPPRLLIYRASTLASGVSSRFKGSGSGTQFTLTISGVECADAATYYCQQGYVSNNLDNIFGGGTEVVVK
notes: Rabbit constant regions; also called Rb Podo 83 (Rb Constant Region); rabbit Podo-83 (Ab-1)
B5: mouse anti-podocalyxin antibody 3G2 (Ab-2) (antibody, V domains shown)
VH: EVQLQQSGPELVKPGASVKMSCKASGYTFTSYVMHWVKQKPGQGLEWIGYIHPYNDGTNYNEKFKGKATLTSDKSSNTAYMELSSLTSEDSAVYYCARSWDWYFDVWGAGTTVTVSS
VL: QIVLTQSPAIMSASPGEKVTMTCSANSNVRYIHWHQQKSGTSPKRWIYDTSKLSSGVPARFSGSGSGTSYSLTISNMEAEDAATYYCQQWISNPLTFGAGTKLELK
notes: also called 3G2.2; Podo-3G2.2

Key:
human podocalyxin [1] = target: T1, human podocalyxin; experiment: FACS, isotype control, hPodo/MDA (MDA-MB-231 cells transfected with human Podocalyxin cDNA)
human podocalyxin [2] = target: T1, human podocalyxin; experiment: cross competition FACS, MDA-MB-231 cells; row antibody unlabelled 25 ug/mL first; competitor (detected): B-3G2.2 5 ug/mL
human podocalyxin [3] = target: T1, human podocalyxin; experiment: cross competition FACS, MDA-MB-231 cells; row antibody unlabelled 25 ug/mL first; competitor (detected): B-mlgG1 5 ug/mL (control)
human podocalyxin [4] = target: T1, human podocalyxin; experiment: cross competition FACS, MDA-MB-231 cells; row antibody unlabelled 25 ug/mL first; competitor (detected): B-Ova 12 5 ug/mL (control)
human podocalyxin [5] = target: T1, human podocalyxin; experiment: cross competition FACS, MDA-MB-231 cells; row antibody unlabelled 25 ug/mL first; competitor (detected): biotinylated Rb/Hu Podo83 5 ug/mL
human podocalyxin [6] = target: T1, human podocalyxin; experiment: flow cytometry, supernatant 2:15 (so in the source), MDA-MB-231 cells
Method: (§1) The following antibodies were transiently transfected in 293HEK cells, transfected cells were incubated for 96 hours, antibody containing supernatant was then serially titrated in FACS sample buffer. The following supernatants were used as test samples:
(§2) MDA transient transfectants were established as essentially described above in Example 1. MDA transient transfectants and MDA-MB-231 cells were seeded in 96-well v bottom plates at 75,000 cells/well. Cells were pelleted by centrifugation at 400 g for 3 min. Supernatant was removed. The cell pellets were resuspended in 20 μl of the antibody or control supernatants. The plate was incubated on ice for 1 hour.
(§3) The cells were washed by adding 200 μl FACS buffer to dilute unbound antibody. The plate was centrifuged at 400 g for 3 min to pellet cells. The supernatant was removed and repeated. The cell pellets were resuspended in 25 μl of either goat anti-Hu IgG Fc-Alexa647, goat anti-Mouse IgG Fc-Alexa647, or goat anti-rabbit IgG0Fc-A647 (2 μg/ml) and 7A.A.D (2.5 μg/ml). The plates were incubated on ice for 0.5 hours. The wash procedure was again repeated 2×. The cell pellets were finally resuspended in 75 μl FACS buffer and read on the HTFC™ Screening System (IntelliCyt Corporation) (3 sec sip, 1.5 up time) and analyzed on the HyperView® software (IntelliCyt Corporation).

human podocalyxin [7] = target: T1, human podocalyxin; experiment: flow cytometry, supernatant Neat, MDA-MB-231 cells
Method: as §1, §2, §3

human podocalyxin [8] = target: T1, human podocalyxin; experiment: flow cytometry, supernatant 1:125, MDA-MB-231 cells
Method: as §1, §2, §3

human podocalyxin [9] = target: T1, human podocalyxin; experiment: flow cytometry, supernatant 1:5, hPodo/MDA-MB-231 transient transfectants
Method: as §1, §2, §3

human podocalyxin [10] = target: T1, human podocalyxin; experiment: flow cytometry, supernatant 1:5, MDA-MB-231 cells
Method: as §1, §2, §3

human podocalyxin [11] = target: T1, human podocalyxin; experiment: kinetic exclusion assay (KinExA 3200), MDA-MB-231 cells
Method: The concentration dependence of free anti-podocalyxin antibody as a function of MDA-MB231 cell number was determined using a KinExA 3200 instrument (Sapidyne Instruments). Briefly, MDA-MB-231 cells, which express endogenous podocalyxin, were titrated 1:2 from 10×10⁶ cells/mL down 12 steps, and incubated with a fixed concentration of anti-podocalyxin antibodies. MDA-MB231 cells and cell bound antibodies were then isolated by centrifugation. Supernatant containing free, unbound antibody was then transferred to a new tube. The supernatant containing free unbound antibody was passed over the column containing PMMA beads coated with a goat anti-IgG-Fc capture antibody. The amount of free antibody captured on the PMMA beads was then measured using a goat anti-IgG-Fc-A647. This process was repeated for every cell concentration. For each sample assayed a new column of PMMA beads with the goat anti-IgG-Fc capture antibody was packed. The concentration of free antibody over the entire 12 step dilution series was then used to determine the antibody Kd's using the standard Kd template in the KineExA Pro Software (Sapidyne Instruments).

human podocalyxin [12] = target: T1, human podocalyxin; experiment: flow cytometry, supernatant 1:125, hPodo/MDA-MB-231 transient transfectants
Method: as §1, §2, §3

human podocalyxin [13] = target: T1, human podocalyxin; experiment: flow cytometry, supernatant Neat, hPodo/MDA-MB-231 transient transfectants
Method: as §1, §2, §3

human podocalyxin [14] = target: T1, human podocalyxin; experiment: flow cytometry, supernatant 2:15 (so in the source), hPodo/MDA-MB-231 transient transfectants
Method: as §1, §2, §3

human podocalyxin [15] = target: T1, human podocalyxin; experiment: flow cytometry titration on 293-6E cells (endogenous podocalyxin), 48 hours at 4 C
Method: (§4) The affinities of huPodo 83 1:1 and huPodo 83 2:1 antibodies were determined against endogenously expressed podocalyxin on 293 HEK cells. 293-6E cells were seeded in 96-well v bottom plates at 100,000 cells/well. The cells were pelleted at 400 g for 3 min and the supernatant was discarded. The cells were placed on ice and antibody 1:3 titrations were prepared using ice cold medium. The cells were resuspended in the prepared antibody titrations at 25 μl/well and incubated at 4° C. for either 24 or 48 hours. 200 μl 1% FBS/PGS (FACS buffer) was added to each well. The cells were pelleted at 400 g for 3 min and supernatant removed. The wash was repeated 2 more times. The cells were resuspended in goat anti-human IgGFc-A647 (2 μg/ml)+2.5 μg/ml 7AAD and incubated on ice for 30 min. The cells were washed as above and resuspended in 50 μl FACS buffer. The cells were analyzed by flow cytometry using the HTFC™ Screening System (IntelliCyt Corporation) (3 sec sip, 1.5 sec up) and the C6 cytometer (Becton Dickenson).

human podocalyxin [16] = target: T1, human podocalyxin; experiment: flow cytometry titration on 293-6E cells (endogenous podocalyxin), 24 hours at 4 C
Method: as §4

Row | Molecule | flow cytometry fluorescence (name not given) (human podocalyxin [6]) | flow cytometry fluorescence (name not given) (human podocalyxin [7]) | flow cytometry fluorescence (name not given) (human podocalyxin [8]) | flow cytometry fluorescence (name not given) (human podocalyxin [9]) | flow cytometry fluorescence (name not given) (human podocalyxin [10]) | flow cytometry fluorescence (name not given) (human podocalyxin [12]) | flow cytometry fluorescence (name not given) (human podocalyxin [13]) | flow cytometry fluorescence (name not given) (human podocalyxin [14]) | other results
1 | hlgG2 (antibody) | – | – | – | – | – | – | – | – | FACS signal (name not given) (human podocalyxin [1]): 533
2 | 3D3 (Santa Cruz Biotechnology sc23904) (antibody) | – | – | – | – | – | – | – | – | FACS signal of the biotinylated antibody named under assay (human podocalyxin [2]): 26400; FACS signal of the biotinylated antibody named under assay (human podocalyxin [3]): 419; FACS signal of the biotinylated antibody named under assay (human podocalyxin [4]): 450; FACS signal of the biotinylated antibody named under assay (human podocalyxin [5]): 135000
3 | MAB1658 (R&D Systems) (antibody) | – | – | – | – | – | – | – | – | FACS signal of the biotinylated antibody named under assay (human podocalyxin [2]): 26900; FACS signal of the biotinylated antibody named under assay (human podocalyxin [3]): 431; FACS signal of the biotinylated antibody named under assay (human podocalyxin [4]): 476; FACS signal of the biotinylated antibody named under assay (human podocalyxin [5]): 127000
4 | hlgG1 (antibody) | – | – | – | – | – | – | – | – | FACS signal (name not given) (human podocalyxin [1]): 544
5 | B1 | 91500 | 125000 | 39400 | 128000 | 112000 | 61600 | 124000 | 157000 | Kd (human podocalyxin [11]): 0.26 nM; IC50 (human podocalyxin [15]): 0.0355 µg/mL; IC50 (human podocalyxin [16]): 0.0331 µg/mL
6 | B2 | 67200 | 123000 | 22300 | 108000 | 105000 | 37700 | 139000 | 79400 | IC50 (human podocalyxin [15]): 0.052 µg/mL; IC50 (human podocalyxin [16]): 0.0519 µg/mL
7 | B3 | 94800 | 130000 | 47700 | 124000 | 115000 | 74500 | 137000 | 76400 | –
8 | B4 | 53700 | 179000 | 15500 | 139000 | 129000 | 24100 | 90800 | 89700 | –
9 | B5 | – | – | – | – | – | – | – | – | Kd (human podocalyxin [11]): 3.34 nM
